B1: Tripartite motif-containing protein 49C, residues 87 to 133; numbered along this chain, P0CI26 (parent)
chain: SSEEQMCGTHRETKKIFCEVDRSLLCLLCSSSQEHRYHRHRPIEWAA

± gives the uncertainty stated by the source.

This data set covers variants of B1. Kind of data set: abundance fitness (aPCA) (normalised: wild type 0, dead -1); higher = more abundant; growth selection in yeast, the domain comes from the species named. Particulars: Homo sapiens.
On to SSEEQMCGTHRETKKIFCEVDRSLLCLLCSASQEHRYHRHRPIEWAA [S31A], for which the abundance fitness was -0.048 ± 0.086.

On to SSEEQMCGTHRETKKIFCEVDRSLLCLLCSYSQEHRYHRHRPIEWAA [S31Y], for which the abundance fitness was -0.244 ± 0.21. The figure for SSEEQMCGTHRETKKIFCEVDRSLLCLLCSKSQEHRYHRHRPIEWAA [S31K] is -0.286 ± 0.12. The figure for SSEEQMCGTHRETKKIFCEVDRSLLCLLCSQSQEHRYHRHRPIEWAA [S31Q] is -0.152 ± 0.15; for SSEEQMCGHHRETKKIFCEVDRSLLCLLCSSSQEHRYHRHRPIEWAA [T9H] it is -0.153 ± 0.17. The figure for SSEEQMCGTHRETKKIFCEVDRTLLCLLCSSSQEHRYHRHRPIEWAA [S23T] is 0.409 ± 0.14; for SSEEQMCGTHRETKKIFCEVDRALLCLLCSSSQEHRYHRHRPIEWAA [S23A] it is -0.035 ± 0.087. With SSEEQMCGTHRETKKIFCEVDRVLLCLLCSSSQEHRYHRHRPIEWAA [S23V], the abundance fitness was -0.132 ± 0.096. Next, SSEEQMCGTHRETKKIFCEVDRGLLCLLCSSSQEHRYHRHRPIEWAA [S23G]: -0.31 ± 0.094; SSEEQMCGTHRETKKIFCEVDRSLLCLLCSSSQEHRYVRHRPIEWAA [H38V]: -0.851 ± 0.088; SSEEQMCGTHRETKKIFCEVDRSLLCLLCSSSQEHRYFRHRPIEWAA [H38F]: -0.271 ± 0.2.

In the case of SSEEQMCGTHRETKKIFCEVDRSLLCLLCSSSQEHRYDRHRPIEWAA [H38D], the abundance fitness is -0.521 ± 0.14. Next, SSEEQMCGTHRETKKIFCEVDRSLLCILCSSSQEHRYHRHRPIEWAA [L27I]: -0.063 ± 0.096; SSEEQMCGTHRETKKIFCEVDRSLLCALCSSSQEHRYHRHRPIEWAA [L27A]: 0.111 ± 0.074; SSEEQMCGTHRETQKIFCEVDRSLLCLLCSSSQEHRYHRHRPIEWAA [K14Q]: -0.328 ± 0.11. Next, SSEEQMCGTHRETNKIFCEVDRSLLCLLCSSSQEHRYHRHRPIEWAA [K14N]: -0.419 ± 0.2; SSEEQMCGTHRETHKIFCEVDRSLLCLLCSSSQEHRYHRHRPIEWAA [K14H]: -0.738 ± 0.24.

As for SSEEQMCGTHRETCKIFCEVDRSLLCLLCSSSQEHRYHRHRPIEWAA [K14C], the abundance fitness is -0.222 ± 0.15.

Take SSEEQMCGTHRETKKDFCEVDRSLLCLLCSSSQEHRYHRHRPIEWAA [I16D]: the abundance fitness was -0.392 ± 0.2. With SSEEQMCGTHRETKKIFCEVDRSLECLLCSSSQEHRYHRHRPIEWAA [L25E], the abundance fitness is -0.586 ± 0.18.

As for SSEEQMCGTHRETKKIFCEVDRSLFCLLCSSSQEHRYHRHRPIEWAA [L25F], the abundance fitness is -0.581 ± 0.16.

As for SSEEQMCGTHRETKKIFCEVDRSALCLLCSSSQEHRYHRHRPIEWAA [L24A], the abundance fitness is -0.044 ± 0.09.

For SSEEQMCGTHRETKKIFCEVDRSNLCLLCSSSQEHRYHRHRPIEWAA [L24N], the abundance fitness was -0.212 ± 0.17. Next, SSEEQMCGTHRETKKIFCEVDRSVLCLLCSSSQEHRYHRHRPIEWAA [L24V]: -0.139 ± 0.096.

Consider SSEEQMCGTHRETKKIFCEVDRSLLCLLCSSSQEHKYHRHRPIEWAA [R36K], for which the abundance fitness is -0.15 ± 0.15. Consider SSEEQMCGTHRETKKIFCEVDRSLLCLLCSSSQEHGYHRHRPIEWAA [R36G], for which the abundance fitness is -0.454 ± 0.074. The figure for SSEEQMCGTHRETKKIFCEVDRSLLCLLCSSSQEHTYHRHRPIEWAA [R36T] is 0.001 ± 0.11. As for SSEEQMCGTHRETKKIFCEVDRSLLCLLCSSSQEHSYHRHRPIEWAA [R36S], the abundance fitness is -0.197 ± 0.091. On to SSEEQMCGTHRETKKIFCEVDRSLLCLLCSSSQEHVYHRHRPIEWAA [R36V], for which the abundance fitness is -0.213 ± 0.084. On to SSEEQMCGTHRETKKIFCKVDRSLLCLLCSSSQEHRYHRHRPIEWAA [E19K], for which the abundance fitness is -0.66 ± 0.18. SSEEQMCGTHRETKNIFCEVDRSLLCLLCSSSQEHRYHRHRPIEWAA [K15N]: the abundance fitness was found to be 0.201 ± 0.17. Next, SSEEQMCGTHRETKKIFCEVDRSLLCLLCSSSQEHRYHRHRPIEAAA [W45A]: 0.282 ± 0.094; SSEEQMPGTHRETKKIFCEVDRSLLCLLCSSSQEHRYHRHRPIEWAA [C7P]: -0.598 ± 0.1; SSEEQMHGTHRETKKIFCEVDRSLLCLLCSSSQEHRYHRHRPIEWAA [C7H]: -0.429 ± 0.11. Take SSEEQMKGTHRETKKIFCEVDRSLLCLLCSSSQEHRYHRHRPIEWAA [C7K]: the abundance fitness was -1.08 ± 0.27. Next, SSEEQMCGTHRETKKIFCEVDRSLLCLLCSSSQEHRYHRHRPIFWAA [E44F]: -0.82 ± 0.13. Next, SSEEQMCGTHRETKKIFCEVDRSLLCLLCSSSQEHRYHRHRPINWAA [E44N]: -0.065 ± 0.12; SSEEQMCGTHRETKKIFCEVDRSLLCLLCSSSQEHRYHRHRPIRWAA [E44R]: -0.507 ± 0.079. The figure for SSEEQMCGTHRETKKIFCEVDRSLLCLLCSSSQEHRYHRHRPIWWAA [E44W] is -0.598 ± 0.11; for SSEQQMCGTHRETKKIFCEVDRSLLCLLCSSSQEHRYHRHRPIEWAA [E4Q] it is -0.726 ± 0.23; for SSEYQMCGTHRETKKIFCEVDRSLLCLLCSSSQEHRYHRHRPIEWAA [E4Y] it is -0.35 ± 0.21.

In the case of SSEGQMCGTHRETKKIFCEVDRSLLCLLCSSSQEHRYHRHRPIEWAA [E4G], the abundance fitness is -0.68 ± 0.091. As to SSEWQMCGTHRETKKIFCEVDRSLLCLLCSSSQEHRYHRHRPIEWAA [E4W], the abundance fitness was -0.577 ± 0.11.

As to SSEEQMCGTHRETKKIFCEVDRSLLCLLCSSSQEHRYHRHRPEEWAA [I43E], the abundance fitness came to 0.24 ± 0.22. SSEEQMCGTHRETKKIFCEVDRSLLCLLCSSSQEHRYHRHRPIEWAV [A47V]: the abundance fitness came to 0.142 ± 0.16. Next, SSEEQMCGTHRETKKIFCEVDRSLLCLLCSSSQEHRYHRHRPIEWAH [A47H]: -0.036 ± 0.36; SSEEQMCGTHRETKKIFCEVDRSLLCLLCSSSQEHRYHRHRPIEWAS [A47S]: -0.565 ± 0.16. Consider SSEEQMCGTHRETKKIFCEVDRSLLCLLCSSSQEHRYHRHRPIEWAW [A47W], for which the abundance fitness is -0.144 ± 0.33. With SSEEQMCGTHRETKKIFCEVDRSLLCLLCSSSQEHRYHRHRPIEWAE [A47E], the abundance fitness is -0.375 ± 0.19. Turning to SSEEQDCGTHRETKKIFCEVDRSLLCLLCSSSQEHRYHRHRPIEWAA [M6D], the abundance fitness was -0.875 ± 0.24. Next, SSEEQKCGTHRETKKIFCEVDRSLLCLLCSSSQEHRYHRHRPIEWAA [M6K]: -0.581 ± 0.14; SSEEQMCGTHRETKKIFCEVDRSLLCLLCSSSQEHRYHRHRAIEWAA [P42A]: 0.022 ± 0.078; SSEEQMCGTHRETKKIFCEVDRSLLCLLCSSSQEHRYHRHRNIEWAA [P42N]: -0.103 ± 0.083. The figure for SSEEQMCGTHRETKKIFCEVDRSLLELLCSSSQEHRYHRHRPIEWAA [C26E] is -0.806 ± 0.19; for SSEEQMCGTHRETKKIFCEVDRSLLRLLCSSSQEHRYHRHRPIEWAA [C26R] it is -0.798 ± 0.12.
